Substrate in series [1]: OC[C@@H](O)[C@@H](O)[C@@H](O)CO
The series is described as follows: purified protein. The series is classed as biochemical, Sphingomonas sp. PAMC 26621. The note with it: 10-160 mM D-ribitol, NAD+ 0.05-1 mM, 100 mM potassium phosphate pH 8.0, 25°C, no added metal.

Substrate in series [2]: NC(=O)c1ccc[n+]([C@@H]2O[C@H](COP(=O)(O)OP(=O)(O)OC[C@H]3O[C@@H](n4cnc5c(N)ncnc54)[C@H](O)[C@@H]3O)[C@@H](O)[C@H]2O)c1
The series is described as follows: purified protein. It is filed as biochemical, Sphingomonas sp. PAMC 26621. Particulars: 10-160 mM D-ribitol, NAD+ 0.05-1 mM, 100 mM potassium phosphate pH 8.0, 25°C, no added metal, varied: cofactor.

By Km is commonly meant the substrate concentration at which the rate is half of its maximum. As a reminder, the kcat is the number of substrate molecules converted per active site and unit of time at saturation. The term kcat/Km denotes the turnover number divided by the Michaelis constant.

B1: SpRDH (Sphingomonas sp. PAMC 26621) (protein)
chain: MTQKTMTAVVCHGPKDYRVEEIAHPTAGALEFVIRVTACGICASDCKCWSGAKMFWGDDPWVKAPVVPGHEFFGVVDELGEGAGEHFGVAVGDRVIAEQIVPCERCRYCRSGQYWMCEVHNIFGFQRLVADGGMAQFMRLPRTSRVHLIPAEIPDDDAVIIEPLACALHTVRRGTIGFEDVVVIAGAGPIGLMMVQAARLQTPRKLVVIDMVPERLALATTFGADVVINPATDDALAIVHGLTDGYGCDVYIEATGSPAGVVQGLNLIRRLGRFVEFSVFGSDTTVDWSIIGDRKELDVRGAHLGPYCYPIAIDLLSRGLITSNGIVTHRFPLIQWAEAIAVADSLESIKVVLSPST
notes: native enzyme purified from Sphingomonas sp; PAMC 26621 grown on D-ribitol; untagged; identified by MALDI-TOF/TOF
For B1, in series [1], the Km was 8.5 ± 1.2 mM, the kcat is 29 ± 0.7 s⁻¹ and the kcat/Km was 3500 M⁻¹ s⁻¹. Moreover, in series [2], the Km stood at 0.3 ± 0.02 mM and the turnover number (kcat) was 29 ± 0.7 s⁻¹.
